Measured values taken from patent US11833164B2, “Methods of treating Fabry disease in patients having a mutation in the GLA gene” (Amicus Therapeutics, Inc., priority 2019, dated 2023).
Substitutions are numbered along the chain they refer to. Names may count otherwise.

B1: R363G (protein)
chain: MQLRNPELHLGCALALRFLALVSWDIPGARALDNGLARTPTMGWLHWERFMCNLDCQEEPDSCISEKLFMEMAELMVSEGWKDAGYEYLCIDDCWMAPQRDSEGRLQADPQRFPHGIRQLANYVHSKGLKLGIYADVGNKTCAGFPGSFGYYDIDAQTFADWGVDLLKFDGCYCDSLENLADGYKHMSLALNRTGRSIVYSCEWPLYMWPFQKPNYTEIRQYCNHWRNFADIDDSWKSIKSILDWTSFNQERIVDVAGPGGWNDPDMLVIGNFGLSWNQQVTQMALWAIMAAPLFMSNDLRHISPQAKALLQDKDVIAINQDPLGKQGYQLRQGDNFEVWERPLSGLAWAVAMINRQEIGGPGSYTIAVASLGKGVACNPACFITQLLPVKRKLGFYEWTSRLRSHINPTGTVLLQLENTMQMSLKDLL
B2: R363L (protein)
chain: B1 chain with G363L
B3: R363S (protein)
chain: B1 chain with G363S
B4: S364C (protein)
chain: B1 chain with G363R, S364C
B5: S364P (protein)
chain: B1 chain with G363R, S364P
B6: Y365D (protein)
chain: B1 chain with G363R, Y365D
B7: Y365F (protein)
chain: B1 chain with G363R, Y365F
B8: Y365N (protein)
chain: B1 chain with G363R, Y365N
B9: Y365S (protein)
chain: B1 chain with G363R, Y365S
B10: T366I (protein)
chain: B1 chain with G363R, T366I
B11: T366N (protein)
chain: B1 chain with G363R, T366N
B12: T366P (protein)
chain: B1 chain with G363R, T366P
B13: T366S (protein)
chain: B1 chain with G363R, T366S
B14: I367F (protein)
chain: B1 chain with G363R, I367F
B15: I367L (protein)
chain: B1 chain with G363R, I367L
B16: I367M (protein)
chain: B1 chain with G363R, I367M
B17: A368G (protein)
chain: B1 chain with G363R, A368G
B18: A368P (protein)
chain: B1 chain with G363R, A368P
B19: V369A (protein)
chain: B1 chain with G363R, V369A
B20: V369F (protein)
chain: B1 chain with G363R, V369F
B21: V369G (protein)
chain: B1 chain with G363R, V369G

Each molecule was assayed on mutant form of α-Gal A expressed in HEK-293 cells (assay: HEK assay (GLP HEK / Migalastat Amenability Assay): α-Gal A activity in lysates of transiently transfected HEK-293 cells incubated with or without 10 μM migalastat). Conditions: 10 μM migalastat versus baseline.
Format: cell-based, human
How it was run: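 Activity reported as 4-MU released (nmol/mg/hr), mean±SEM, from lysates of transiently transfected HEK-293 cells expressing mutant α-Gal A, cultured with or without 10 μM migalastat.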

Molecule	Absolute increase (% WT)	Relative increase
B1	72.6	2.7
B2	62.2	3.5
B3	86.6	2.7
B4	40.0	1.3
B5	63.1	1.4
B6	19.7	1.6
B7	21.1	1.3
B8	22.5	1.4
B9	18.4	1.4
B10	20.0	1.3
B11	20.4	1.3
B12	13.4	1.3
B13	16.2	1.2
B14	21.6	1.4
B15	21.9	1.2
B16	22.3	1.3
B17	30.9	1.3
B18	25.7	1.3
B19	38.6	1.5
B20	19.6	1.5
B21	5.5	3.3

Same assay, conditions: absence of migalastat; percentage of baseline wild-type α-Gal A activity; mean ± SEM

Molecule	Baseline α-Gal A activity (% WT)
B1	41.8 ± 5.1
B2	23.2 ± 1.9
B3	50.1 ± 5.9
B4	127 ± 10.6
B5	143.2 ± 13.7
B6	31.3 ± 2.7
B7	67.7 ± 5.1
B8	59.7 ± 1.7
B9	49.4 ± 4.1
B10	57.8 ± 2.5
B11	78.1 ± 5.3
B12	46.2 ± 4
B13	70.6 ± 4.9
B14	48.3 ± 3.7
B15	79 ± 4
B16	76.7 ± 3.9
B17	83.9 ± 4.7
B18	91.7 ± 4.6
B19	77.6 ± 5
B20	37.7 ± 2.8
B21	2.6 ± 0.2

Same assay, conditions: lysates of HEK-293 cells transiently transfected with the mutant form, incubated 5 days in absence of migalastat; mean ± SEM

Molecule	Baseline α-Gal A activity [nmol/mg/h]
B1	13990 ± 1613
B2	8123 ± 869
B3	16400 ± 1695
B4	41263 ± 2389
B5	48193 ± 4573
B6	9119 ± 1027
B7	19631 ± 2010
B8	19111 ± 869
B9	14346 ± 1563
B10	18539 ± 1165
B11	24650 ± 1756
B12	13407 ± 1462
B13	20731 ± 2170
B14	15728 ± 1680
B15	25211 ± 1640
B16	28430 ± 1769
B17	31616 ± 2552
B18	26402 ± 926
B19	23968 ± 1797
B20	11912 ± 1197
B21	803 ± 59

Same assay, conditions: lysates of HEK-293 cells transiently transfected with the mutant form, incubated 5 days with 10 μM migalastat; mean ± SEM

Molecule	10 μM migalastat α-Gal A activity [nmol/mg/h]
B1	37837 ± 2998
B2	27997 ± 2485
B3	44621 ± 3266
B4	53912 ± 3067
B5	66731 ± 4698
B6	14664 ± 1311
B7	25395 ± 2160
B8	26514 ± 1978
B9	19484 ± 1899
B10	24814 ± 1897
B11	30947 ± 1867
B12	16910 ± 1608
B13	24885 ± 1760
B14	22178 ± 1794
B15	31257 ± 2256
B16	36008 ± 2249
B17	42198 ± 2923
B18	33525 ± 1803
B19	35925 ± 2462
B20	18282 ± 1960
B21	2628 ± 291

Same assay, conditions: with 10 μM migalastat, 5 days; percentage of baseline wild-type α-Gal A activity; mean ± SEM

Molecule	10 μM migalastat α-Gal A activity (% WT)
B1	114.4 ± 10.7
B2	85.4 ± 9.5
B3	136.7 ± 12.4
B4	167 ± 14.8
B5	206.4 ± 20
B6	51 ± 3.5
B7	88.8 ± 5.3
B8	82.2 ± 4.5
B9	67.8 ± 4.9
B10	77.8 ± 5.3
B11	98.5 ± 5.4
B12	59.5 ± 5.1
B13	86.7 ± 3.6
B14	69.9 ± 5.7
B15	101 ± 9.3
B16	99 ± 6.7
B17	114.8 ± 7.8
B18	117.4 ± 8.7
B19	116.2 ± 6.3
B20	57.3 ± 4.8
B21	8.1 ± 0.7
